Among the data in US20050244862A1 are EC50, amplification assay (β-galactosidase), Single Receptor Format, ED50 of carbachol for the β-galactosidase response of cells co-expressing m4 and Gq-i5 and ED50 of carbachol for the β-galactosidase response of cells co-expressing m4 and Gq-o5 values, retold here.

Targets include Insulin receptor; Gq-i5 chimeric G-protein; Gq-o5 chimeric G-protein; NK1 tachykinin receptor (UniProt P25103); NK2 tachykinin receptor (UniProt P21452).
Holding throughout (test): cell-based or functional assay
A further experiment deals with T1, NK3 tachykinin receptor (UniProt P29371).
T1 sequence (looked up): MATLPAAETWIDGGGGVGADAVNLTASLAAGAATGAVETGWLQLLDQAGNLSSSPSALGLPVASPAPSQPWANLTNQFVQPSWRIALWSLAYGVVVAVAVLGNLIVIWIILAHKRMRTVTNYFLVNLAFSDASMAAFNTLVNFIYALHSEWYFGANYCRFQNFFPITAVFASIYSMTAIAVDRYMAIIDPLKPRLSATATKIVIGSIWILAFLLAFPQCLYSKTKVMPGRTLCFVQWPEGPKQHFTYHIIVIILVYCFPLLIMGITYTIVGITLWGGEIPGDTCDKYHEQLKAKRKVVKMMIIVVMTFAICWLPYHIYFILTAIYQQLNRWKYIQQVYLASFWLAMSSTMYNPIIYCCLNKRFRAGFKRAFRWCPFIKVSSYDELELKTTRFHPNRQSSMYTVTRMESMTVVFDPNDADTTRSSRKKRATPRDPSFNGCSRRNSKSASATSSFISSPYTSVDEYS

Chain of m4 muscarinic receptor (P08173 whole entry): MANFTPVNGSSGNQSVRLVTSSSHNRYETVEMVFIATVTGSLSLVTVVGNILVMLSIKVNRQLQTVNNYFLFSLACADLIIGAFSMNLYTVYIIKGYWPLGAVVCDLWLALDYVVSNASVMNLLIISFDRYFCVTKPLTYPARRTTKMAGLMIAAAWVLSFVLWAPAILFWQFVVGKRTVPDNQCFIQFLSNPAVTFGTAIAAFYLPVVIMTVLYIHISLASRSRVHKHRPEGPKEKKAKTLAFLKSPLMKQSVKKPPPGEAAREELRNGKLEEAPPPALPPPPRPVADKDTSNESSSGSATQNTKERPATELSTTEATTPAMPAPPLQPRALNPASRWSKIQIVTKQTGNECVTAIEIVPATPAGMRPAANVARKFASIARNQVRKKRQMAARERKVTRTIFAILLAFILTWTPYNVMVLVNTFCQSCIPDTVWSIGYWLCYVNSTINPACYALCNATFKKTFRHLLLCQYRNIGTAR
Chain of NK1 tachykinin receptor (P25103 whole entry): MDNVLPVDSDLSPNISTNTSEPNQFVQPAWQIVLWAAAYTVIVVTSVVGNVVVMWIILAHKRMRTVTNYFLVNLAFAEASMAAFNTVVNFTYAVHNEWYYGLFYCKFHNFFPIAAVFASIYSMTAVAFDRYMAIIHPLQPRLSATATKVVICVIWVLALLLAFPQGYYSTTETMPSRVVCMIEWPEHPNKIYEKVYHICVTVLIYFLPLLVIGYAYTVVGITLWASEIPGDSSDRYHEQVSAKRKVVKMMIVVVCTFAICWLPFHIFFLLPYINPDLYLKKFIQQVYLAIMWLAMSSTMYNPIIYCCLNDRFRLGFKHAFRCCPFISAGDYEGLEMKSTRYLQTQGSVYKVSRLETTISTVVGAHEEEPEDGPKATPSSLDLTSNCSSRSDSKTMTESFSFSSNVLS
Chain of NK2 tachykinin receptor (P21452 whole entry): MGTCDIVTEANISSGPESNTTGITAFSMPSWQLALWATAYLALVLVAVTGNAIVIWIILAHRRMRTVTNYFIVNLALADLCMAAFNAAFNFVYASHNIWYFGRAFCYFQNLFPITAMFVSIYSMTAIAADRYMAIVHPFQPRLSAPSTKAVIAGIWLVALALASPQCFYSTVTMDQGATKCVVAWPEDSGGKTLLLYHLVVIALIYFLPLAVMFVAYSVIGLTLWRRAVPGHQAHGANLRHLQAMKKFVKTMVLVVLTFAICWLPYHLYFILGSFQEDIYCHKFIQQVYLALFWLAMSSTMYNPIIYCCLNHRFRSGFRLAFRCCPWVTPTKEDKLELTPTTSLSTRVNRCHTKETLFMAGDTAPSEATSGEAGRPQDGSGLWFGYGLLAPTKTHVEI

Insulin (ligand) registered an EC50, amplification assay (β-galactosidase), Single Receptor Format in the experiment with Insulin receptor of 0.08 nM.
Take “m4 muscarinic receptor (from UniProt P08173 1-479)”: the ED50 of carbachol for the β-galactosidase response of cells co-expressing m4 and Gq-i5 in the experiment with Gq-i5 chimeric G-protein was determined as 37 nM. Further, in the experiment with Gq-o5 chimeric G-protein, the ED50 of carbachol for the β-galactosidase response of cells co-expressing m4 and Gq-o5 is 32 nM.
Take “neurokinin A (from UniProt P20366 98-107) (peptide)”: the EC50, amplification assay (β-galactosidase), Single Receptor Format in the experiment with NK1 tachykinin receptor was 14 nM; in the experiment with NK3 tachykinin receptor, 11 nM.
Regarding “substance P (from UniProt P20366 58-68) (peptide)”, the values for the EC50, amplification assay (β-galactosidase), Single Receptor Format with NK2 tachykinin receptor and with NK3 tachykinin receptor were 65 nM and 164 nM, respectively.
